# T1: ICP4NdeltaIDR (ICP4deltaIDR) (Herpes simplex virus 1, UniProt P08392 288-487)
# T1 sequence: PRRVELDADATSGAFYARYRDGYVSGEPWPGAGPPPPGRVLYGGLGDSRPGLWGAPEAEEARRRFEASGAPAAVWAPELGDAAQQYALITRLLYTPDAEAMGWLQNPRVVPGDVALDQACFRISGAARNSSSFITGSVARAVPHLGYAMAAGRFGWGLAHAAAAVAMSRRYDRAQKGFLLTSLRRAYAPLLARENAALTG
# T2: ICP4N (ICP4 DNA binding domain) (Herpes simplex virus 1, UniProt P08392 258-487)
# T2 sequence: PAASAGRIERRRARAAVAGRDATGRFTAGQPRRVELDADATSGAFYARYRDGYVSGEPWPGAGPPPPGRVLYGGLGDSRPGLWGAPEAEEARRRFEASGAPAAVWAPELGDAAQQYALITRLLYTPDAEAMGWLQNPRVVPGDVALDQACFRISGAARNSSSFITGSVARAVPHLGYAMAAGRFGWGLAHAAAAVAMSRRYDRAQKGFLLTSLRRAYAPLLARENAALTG
# B1: IE3_12mer (dsDNA)
# DNA 1: CCGATCGTCCAC
# DNA 2: GTGGACGATCGG
# B2: IE3_19mer (dsDNA)
# DNA 1: CCGATCGTCCACACGGAGC
# DNA 2: GCTCCGTGTGGACGATCGG
# B3: ICP4 DNA binding domain, residues 258–487 (ICP4N) (domain or fragment)
# chain: PAASAGRIERRRARAAVAGRDATGRFTAGQPRRVELDADATSGAFYARYRDGYVSGEPWPGAGPPPPGRVLYGGLGDSRPGLWGAPEAEEARRRFEASGAPAAVWAPELGDAAQQYALITRLLYTPDAEAMGWLQNPRVVPGDVALDQACFRISGAARNSSSFITGSVARAVPHLGYAMAAGRFGWGLAHAAAAVAMSRRYDRAQKGFLLTSLRRAYAPLLARENAALTG
# notes: gene synthesised, codon optimised for E. coli; Strep-tag removed with HRV3C protease; Homodimer by SEC-MALS, AUC and crystal structure; also called ICP4 DBD; source: E. coli T7 Express LysY, purified (Strep-Tactin, Superdex 75); not shown: Strep-tag, N-terminal, cleaved
# B4: truncated ICP4 DNA binding domain, residues 288–487 (ICP4NΔIDR) (domain or fragment)
# chain: PRRVELDADATSGAFYARYRDGYVSGEPWPGAGPPPPGRVLYGGLGDSRPGLWGAPEAEEARRRFEASGAPAAVWAPELGDAAQQYALITRLLYTPDAEAMGWLQNPRVVPGDVALDQACFRISGAARNSSSFITGSVARAVPHLGYAMAAGRFGWGLAHAAAAVAMSRRYDRAQKGFLLTSLRRAYAPLLARENAALTG
# notes: Strep-tag removed with HRV3C protease; also called ICP4ΔIDR; ICP4NdIDR; source: E. coli T7 Express LysY, purified (Strep-Tactin, Superdex 75); not shown: Strep-tag, N-terminal, cleaved
# B5: IE3_19mer, biotinylated (dsDNA)
# DNA 1: CCGATCGTCCACACGGAGC
# DNA 2: GCTCCGTGTGGACGATCGG
# How the values were obtained:
# [1] = molecular target: T1, ICP4NdeltaIDR (ICP4deltaIDR); assay: X-ray crystallography; 2.12 A; SPR: 20 mM HEPES, 200 mM NaCl, 2 mM MgCl2, 0.05% Tween-20, pH 7.4, 25 C; NMR: 20 mM MES, 50 mM NaCl, 50 mM L-Arg, 50 mM L-Glu, 1 mM TCEP, 2 mM MgCl2, pH 6.6, 25 C; details: protein: recombinant; tags: N-terminal Strep-tag, HRV3C-cleaved (removed); chain copies: 2; blunt
# [2] = molecular target: T2, ICP4N (ICP4 DNA binding domain); assay: X-ray crystallography; 2.28 A; SPR: 20 mM HEPES, 200 mM NaCl, 2 mM MgCl2, 0.05% Tween-20, pH 7.4, 25 C; NMR: 20 mM MES, 50 mM NaCl, 50 mM L-Arg, 50 mM L-Glu, 1 mM TCEP, 2 mM MgCl2, pH 6.6, 25 C; details: protein: recombinant; tags: N-terminal Strep-tag, HRV3C-cleaved (removed); chain copies: 2; blunt
# [3] = molecular target: the molecule itself; assay: SEC-MALS; 0.5 ml at 1 mg/ml on Superdex 75 or Superdex 200 10/300GL in 20 mM HEPES, 150 mM NaCl, 50 mM L-Arg, 50 mM L-Glu, 0.5 mM TCEP, pH 7.9; free protein and (ICP4N) with IE3_19mer DNA
# [4] = molecular target: T2, ICP4N (ICP4 DNA binding domain); assay: SPR; 2 mM Mg2+; nanomolar Kd, value only in Fig 5C; SPR: 20 mM HEPES, 200 mM NaCl, 2 mM MgCl2, 0.05% Tween-20, pH 7.4, 25 C; NMR: 20 mM MES, 50 mM NaCl, 50 mM L-Arg, 50 mM L-Glu, 1 mM TCEP, 2 mM MgCl2, pH 6.6, 25 C; details: protein: recombinant; tags: N-terminal Strep-tag, HRV3C-cleaved (removed); chain copies: 2; label: 5' biotin on forward strand; blunt
binder,measurement,setting,value
B1,binding result,[1],binds
B2,binding result,[2],binds
B3,stoichiometry N,[3],2
B4,stoichiometry N,[3],2
B5,binding result,[4],binds

# Source: publication PMC5737704, “The herpes viral transcription factor ICP4 forms a novel DNA recognition complex” (Nucleic Acids Research, 2017)
